Measurements published in IntAct's records for PubMed 10097141.

B1: Polycystin-2 (Homo sapiens), Q13563 (parent)
chain: MVNSSRVQPQQPGDAKRPPAPRAPDPGRLMAGCAAVGASLAAPGGLCEQRGLEIEMQRIRQAAARDPPAGAAASPSPPLSSCSRQAWSRDNPGFEAEEEEEEVEGEEGGMVVEMDVEWRPGSRRSAASSAVSSVGARSRGLGGYHGAGHPSGRRRRREDQGPPCPSPVGGGDPLHRHLPLEGQPPRVAWAERLVRGLRGLWGTRLMEESSTNREKYLKSVLRELVTYLLFLIVLCILTYGMMSSNVYYYTRMMSQLFLDTPVSKTEKTNFKTLSSMEDFWKFTEGSLLDGLYWKMQPSNQTEADNRSFIFYENLLLGVPRIRQLRVRNGSCSIPQDLRDEIKECYDVYSVSSEDRAPFGPRNGTAWIYTSEKDLNGSSHWGIIATYSGAGYYLDLSRTREETAAQVASLKKNVWLDRGTRATFIDFSVYNANINLFCVVRLLVEFPATGGVIPSWQFQPLKLIRYVTTFDFFLAACEIIFCFFIFYYVVEEILEIRIHKLHYFRSFWNCLDVVIVVLSVVAIGINIYRTSNVEVLLQFLEDQNTFPNFEHLAYWQIQFNNIAAVTVFFVWIKLFKFINFNRTMSQLSTTMSRCAKDLFGFAIMFFIIFLAYAQLAYLVFGTQVDDFSTFQECIFTQFRIILGDINFAEIEEANRVLGPIYFTTFVFFMFFILLNMFLAIINDTYSEVKSDLAQQKAEMELSDLIRKGYHKALVKLKLKKNTVDDISESLRQGGGKLNFDELRQDLKGKGHTDAEIEAIFTKYDQDGDQELTEHEHQQMRDDLEKEREDLDLDHSSLPRPMSSRSFPRSLDDSEEDDDEDSGHSSRRRGSISSGVSYEEFQVLVRRVDRMEHSIGSIVSKIDAVIVKLEIMERAKLKRREVLGRLLDGVAEDERLGRDSEIHREQMERLVREELERWESDDAASQISHGLGTPVGLNGQPRPRSSRPSSSQSTEGMEGAGGNGSSNVHV

Variants of: B1
Conditions: with TRPC1, P48995-2
Chain of TRPC1, P48995-2 (P48995 other isoform, or with tags, fused parts or gaps): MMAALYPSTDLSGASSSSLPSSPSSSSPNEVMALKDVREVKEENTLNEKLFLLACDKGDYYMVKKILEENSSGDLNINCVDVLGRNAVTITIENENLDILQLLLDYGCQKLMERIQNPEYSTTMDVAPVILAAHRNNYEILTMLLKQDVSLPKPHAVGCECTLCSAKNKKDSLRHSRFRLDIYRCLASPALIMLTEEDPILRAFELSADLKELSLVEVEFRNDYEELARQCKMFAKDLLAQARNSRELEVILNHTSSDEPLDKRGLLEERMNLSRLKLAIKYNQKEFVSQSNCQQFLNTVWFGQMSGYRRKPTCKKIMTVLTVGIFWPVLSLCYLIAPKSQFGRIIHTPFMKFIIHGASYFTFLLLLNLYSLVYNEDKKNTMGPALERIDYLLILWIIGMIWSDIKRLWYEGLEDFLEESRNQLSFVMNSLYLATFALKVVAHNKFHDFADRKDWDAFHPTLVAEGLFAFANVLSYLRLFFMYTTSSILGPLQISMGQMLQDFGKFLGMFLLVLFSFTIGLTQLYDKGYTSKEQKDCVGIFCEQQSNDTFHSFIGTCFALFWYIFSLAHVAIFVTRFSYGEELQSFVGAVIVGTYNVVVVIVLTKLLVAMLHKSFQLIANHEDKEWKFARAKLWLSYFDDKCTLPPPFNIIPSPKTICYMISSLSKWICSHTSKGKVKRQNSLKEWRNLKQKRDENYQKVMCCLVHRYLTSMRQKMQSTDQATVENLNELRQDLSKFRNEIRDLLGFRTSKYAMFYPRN

Variant | effect of a mutation on the interaction
D886A | disrupting interaction

Variants of: B1
Conditions: with pkd1_human PKD1, P98161
Chain of pkd1_human PKD1, P98161 (P98161 whole entry, looked up): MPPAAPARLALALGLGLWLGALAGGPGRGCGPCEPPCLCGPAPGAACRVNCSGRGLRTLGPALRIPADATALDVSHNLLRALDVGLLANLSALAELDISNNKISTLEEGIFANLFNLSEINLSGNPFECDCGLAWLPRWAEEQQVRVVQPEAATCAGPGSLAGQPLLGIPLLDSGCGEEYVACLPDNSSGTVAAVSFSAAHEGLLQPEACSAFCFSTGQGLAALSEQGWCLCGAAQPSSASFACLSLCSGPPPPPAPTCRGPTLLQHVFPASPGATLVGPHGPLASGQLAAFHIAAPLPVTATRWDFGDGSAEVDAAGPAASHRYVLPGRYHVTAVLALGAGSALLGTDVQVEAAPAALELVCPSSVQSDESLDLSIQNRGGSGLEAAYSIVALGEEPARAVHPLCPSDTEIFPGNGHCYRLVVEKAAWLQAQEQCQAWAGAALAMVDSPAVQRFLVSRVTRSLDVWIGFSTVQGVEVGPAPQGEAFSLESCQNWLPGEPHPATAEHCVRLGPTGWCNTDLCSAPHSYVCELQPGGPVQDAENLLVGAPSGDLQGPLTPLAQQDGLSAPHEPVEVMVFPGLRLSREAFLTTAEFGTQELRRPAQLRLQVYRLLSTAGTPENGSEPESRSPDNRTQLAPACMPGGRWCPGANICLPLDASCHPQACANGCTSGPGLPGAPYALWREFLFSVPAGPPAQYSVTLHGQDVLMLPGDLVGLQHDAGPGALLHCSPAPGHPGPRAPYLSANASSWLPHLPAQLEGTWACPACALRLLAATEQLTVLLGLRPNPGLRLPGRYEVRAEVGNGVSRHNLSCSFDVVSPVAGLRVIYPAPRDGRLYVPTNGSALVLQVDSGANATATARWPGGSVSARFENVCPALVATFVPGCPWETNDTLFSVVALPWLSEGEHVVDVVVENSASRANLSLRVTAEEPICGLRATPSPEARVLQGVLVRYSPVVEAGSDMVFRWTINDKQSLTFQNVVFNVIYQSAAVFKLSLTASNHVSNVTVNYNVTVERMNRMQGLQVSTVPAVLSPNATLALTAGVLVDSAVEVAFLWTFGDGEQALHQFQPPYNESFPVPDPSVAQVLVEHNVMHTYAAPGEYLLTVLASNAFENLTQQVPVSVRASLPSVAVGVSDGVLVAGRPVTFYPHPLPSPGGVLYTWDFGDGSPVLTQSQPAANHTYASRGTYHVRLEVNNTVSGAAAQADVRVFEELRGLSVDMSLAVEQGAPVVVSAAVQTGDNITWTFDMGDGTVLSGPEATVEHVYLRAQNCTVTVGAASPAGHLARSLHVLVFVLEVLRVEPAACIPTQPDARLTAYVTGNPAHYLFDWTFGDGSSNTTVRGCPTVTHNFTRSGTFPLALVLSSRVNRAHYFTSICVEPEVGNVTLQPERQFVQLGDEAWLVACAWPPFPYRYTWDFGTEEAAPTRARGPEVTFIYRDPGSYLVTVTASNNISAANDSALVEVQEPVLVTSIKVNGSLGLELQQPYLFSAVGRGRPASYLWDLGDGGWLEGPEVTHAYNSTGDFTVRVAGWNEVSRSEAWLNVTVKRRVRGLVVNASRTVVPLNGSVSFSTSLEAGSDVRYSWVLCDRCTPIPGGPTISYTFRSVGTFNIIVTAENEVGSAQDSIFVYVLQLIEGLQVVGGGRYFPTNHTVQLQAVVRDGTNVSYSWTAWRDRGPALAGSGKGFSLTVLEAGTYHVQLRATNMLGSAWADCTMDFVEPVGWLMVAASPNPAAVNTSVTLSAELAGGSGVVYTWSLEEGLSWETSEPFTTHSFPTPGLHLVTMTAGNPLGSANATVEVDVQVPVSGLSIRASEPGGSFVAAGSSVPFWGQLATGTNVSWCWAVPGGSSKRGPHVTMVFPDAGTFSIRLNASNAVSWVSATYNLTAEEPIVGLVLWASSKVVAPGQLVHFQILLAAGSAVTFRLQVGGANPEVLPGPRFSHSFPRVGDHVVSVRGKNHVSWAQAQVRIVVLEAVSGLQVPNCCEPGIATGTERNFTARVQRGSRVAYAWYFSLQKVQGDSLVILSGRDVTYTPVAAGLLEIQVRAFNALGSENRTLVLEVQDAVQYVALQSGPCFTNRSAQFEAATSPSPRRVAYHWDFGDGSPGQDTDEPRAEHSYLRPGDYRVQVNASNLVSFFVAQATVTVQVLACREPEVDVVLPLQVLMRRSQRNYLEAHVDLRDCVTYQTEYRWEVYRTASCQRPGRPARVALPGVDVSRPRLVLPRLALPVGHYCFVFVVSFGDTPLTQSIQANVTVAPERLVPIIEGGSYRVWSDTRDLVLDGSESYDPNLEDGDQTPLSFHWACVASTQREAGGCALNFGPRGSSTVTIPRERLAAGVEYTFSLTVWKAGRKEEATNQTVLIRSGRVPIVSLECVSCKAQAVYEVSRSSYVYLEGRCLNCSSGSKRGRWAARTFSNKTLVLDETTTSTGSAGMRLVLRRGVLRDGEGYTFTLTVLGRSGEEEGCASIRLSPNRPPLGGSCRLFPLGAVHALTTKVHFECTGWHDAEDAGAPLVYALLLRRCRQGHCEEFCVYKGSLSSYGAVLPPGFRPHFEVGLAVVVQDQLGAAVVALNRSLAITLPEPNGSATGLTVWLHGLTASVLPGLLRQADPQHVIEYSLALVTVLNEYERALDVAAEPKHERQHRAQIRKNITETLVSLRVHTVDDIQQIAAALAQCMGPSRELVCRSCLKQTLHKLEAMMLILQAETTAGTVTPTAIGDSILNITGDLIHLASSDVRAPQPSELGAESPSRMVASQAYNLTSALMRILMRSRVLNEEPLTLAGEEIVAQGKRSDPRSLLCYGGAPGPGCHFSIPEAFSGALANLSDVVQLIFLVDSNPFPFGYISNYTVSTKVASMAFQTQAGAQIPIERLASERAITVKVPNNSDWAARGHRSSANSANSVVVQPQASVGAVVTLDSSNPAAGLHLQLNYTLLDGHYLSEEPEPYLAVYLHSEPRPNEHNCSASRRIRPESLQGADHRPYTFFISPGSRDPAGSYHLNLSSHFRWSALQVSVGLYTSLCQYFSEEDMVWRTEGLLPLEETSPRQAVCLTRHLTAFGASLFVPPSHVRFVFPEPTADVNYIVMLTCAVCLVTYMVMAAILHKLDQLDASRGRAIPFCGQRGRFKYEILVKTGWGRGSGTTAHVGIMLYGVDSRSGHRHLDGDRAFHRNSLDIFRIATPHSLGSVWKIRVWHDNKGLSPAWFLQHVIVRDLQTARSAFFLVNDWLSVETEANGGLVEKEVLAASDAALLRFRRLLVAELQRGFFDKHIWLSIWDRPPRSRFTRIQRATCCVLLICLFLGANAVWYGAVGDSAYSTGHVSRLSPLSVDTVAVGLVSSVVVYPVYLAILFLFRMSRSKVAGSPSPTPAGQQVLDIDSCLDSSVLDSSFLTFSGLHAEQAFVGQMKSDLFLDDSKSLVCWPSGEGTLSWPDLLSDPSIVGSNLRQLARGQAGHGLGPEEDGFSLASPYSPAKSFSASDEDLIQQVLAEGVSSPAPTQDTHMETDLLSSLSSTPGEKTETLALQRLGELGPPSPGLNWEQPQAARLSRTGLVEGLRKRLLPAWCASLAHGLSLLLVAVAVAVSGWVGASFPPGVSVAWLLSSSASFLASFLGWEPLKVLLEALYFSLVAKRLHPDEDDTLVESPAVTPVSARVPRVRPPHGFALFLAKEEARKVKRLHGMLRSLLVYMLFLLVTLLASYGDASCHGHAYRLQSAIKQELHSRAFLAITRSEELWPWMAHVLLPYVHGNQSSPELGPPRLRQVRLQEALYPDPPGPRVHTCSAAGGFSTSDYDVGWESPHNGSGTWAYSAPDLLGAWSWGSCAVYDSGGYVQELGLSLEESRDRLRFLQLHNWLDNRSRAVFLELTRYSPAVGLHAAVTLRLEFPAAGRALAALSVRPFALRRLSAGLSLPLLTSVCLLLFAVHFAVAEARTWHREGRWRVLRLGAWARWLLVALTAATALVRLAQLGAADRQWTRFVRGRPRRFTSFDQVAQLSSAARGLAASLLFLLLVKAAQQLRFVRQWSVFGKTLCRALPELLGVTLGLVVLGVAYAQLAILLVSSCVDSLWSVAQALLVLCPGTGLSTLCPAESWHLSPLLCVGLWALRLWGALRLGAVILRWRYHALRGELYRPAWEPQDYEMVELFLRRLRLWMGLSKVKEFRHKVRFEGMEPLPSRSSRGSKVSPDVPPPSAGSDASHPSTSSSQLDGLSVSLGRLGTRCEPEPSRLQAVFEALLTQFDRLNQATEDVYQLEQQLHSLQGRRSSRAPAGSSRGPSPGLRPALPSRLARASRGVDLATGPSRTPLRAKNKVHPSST

Variant | effect of a mutation on the interaction
L884H | disrupting interaction
